Read-outs that look alike come from different tables or passages of the source.
Assays:
[1] = target: T1, Human IL-23 (human, UniProt Q9NPF7 20-189; P29460 23-328); assay: cell-based or functional assay
T1 sequence 1: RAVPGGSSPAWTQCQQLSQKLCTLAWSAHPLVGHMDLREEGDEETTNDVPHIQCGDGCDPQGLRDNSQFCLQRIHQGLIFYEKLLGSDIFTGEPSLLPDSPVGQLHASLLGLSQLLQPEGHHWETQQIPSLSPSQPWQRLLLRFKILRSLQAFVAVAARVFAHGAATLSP
T1 sequence 2: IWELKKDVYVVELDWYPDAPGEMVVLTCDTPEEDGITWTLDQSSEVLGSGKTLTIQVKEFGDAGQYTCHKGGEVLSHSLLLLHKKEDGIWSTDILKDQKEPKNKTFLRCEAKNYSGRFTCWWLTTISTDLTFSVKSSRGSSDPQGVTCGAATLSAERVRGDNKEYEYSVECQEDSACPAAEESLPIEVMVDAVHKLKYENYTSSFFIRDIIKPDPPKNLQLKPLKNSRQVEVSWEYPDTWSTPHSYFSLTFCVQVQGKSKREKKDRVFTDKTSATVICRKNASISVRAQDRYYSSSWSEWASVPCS

[2] = target: T2, Human IL-18 (human, UniProt Q14116 37-193); assay: cell-based or functional assay
T2 sequence: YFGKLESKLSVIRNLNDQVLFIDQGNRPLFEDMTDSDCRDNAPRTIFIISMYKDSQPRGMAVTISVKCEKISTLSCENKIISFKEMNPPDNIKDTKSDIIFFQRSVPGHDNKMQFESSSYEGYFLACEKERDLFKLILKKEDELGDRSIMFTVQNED

[3] = target: T3, Cynomolgus monkey IL-18 (Rhesus monkey (identical to cynomolgus …, UniProt Q9BGI5 37-193)); assay: cell-based or functional assay
T3 sequence: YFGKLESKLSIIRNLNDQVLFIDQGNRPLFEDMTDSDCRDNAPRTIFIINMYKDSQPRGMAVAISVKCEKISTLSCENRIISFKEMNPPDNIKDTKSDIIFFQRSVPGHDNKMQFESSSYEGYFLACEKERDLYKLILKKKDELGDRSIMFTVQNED

[4] = target: T2, Human IL-18; assay: cell-based or functional assay; remark: listed apart in the source
[5] = target: T1, Human IL-23; assay: cell-based or functional assay; remark: listed apart in the source
[6] = target: T1, Human IL-23; assay: cell-based or functional assay; remark: listed apart in the source
[7] = target: T2, Human IL-18; assay: SPR (Biacore 8K/T200), antibody captured on Protein A/G, cytokine as analyte, 25 C, geometric mean of n=3-5
Method: (§1) A heterodimeric bsAb, alongside anti-IL-18 and anti-IL-23 common light chain control bispecific antibodies, were assessed for binding to human and cyno IL-18 and IL-23, using the Biacore 8K and T200 (Cytiva) surface plasmon resonance (SPR) instruments. All reagents were generated recombinantly in-house with the exception of Rhesus monkey IL-18 which was purchased from R&D systems (Cat #2548-RM-025/CF). Rhesus and cynomolgus monkey amino acid sequences are identical. Therefore, the protein will be referred to as cynomolgus monkey IL-18.
(§2) Heterodimeric bsAb, anti-IL-18 and anti-IL-23 common light chain bispecific control molecules were assessed for binding to recombinant human and cynomolgus monkey IL-18 and IL-23 using the Biacore 8K and T200 (Cytiva) SPR instruments. The antibodies were captured onto Protein A/G, which was immobilised onto flow cell 2 of 8 channels (Biacore 8K) or flow cells 2, 3 and 4 (Biacore T200) of a CM5 series S sensor chip by primary amine coupling. The IL-18 or IL-23 analytes were passed over the captured antibodies at varying concentrations between 0.04-25 nM. The association phase was for 240 seconds at 30 μl/min, followed by a dissociation step of up to 1200 seconds. A 0 nM (i.e., buffer alone) injection was used to double reference the binding curves. Regeneration of the chip surface between cycles was carried out using 50 mM NaOH. The assay was run at 25° C. in HBS-EP⁺ buffer. Biacore 8K control software version 3.0 was used to run the experiment. Data was analysed using Biacore 8K Insight evaluation software version 3.0. Biacore T200 control software version 1.0 was used to run the experiment. Data was analysed using Biacore T200 evaluation software version 2.0. Affinities and kinetics were determined using the 1:1 kinetic fit inherent to the software where possible. All affinity values generated using both instruments were combined to determine geometric mean values.

[8] = target: T3, Cynomolgus monkey IL-18; assay: as above
Method: as §1, §2

[9] = target: T1, Human IL-23; assay: as above
Method: as §1, §2

[10] = target: T4, Cynomolgus monkey IL-23 (cynomolgus monkey); assay: as above
T4 construct: also called Cyno IL-23
Method: as §1, §2

[11] = target: T2, Human IL-18; assay: SPR (Biacore), antibody captured on Protein A/G, cytokine as analyte, 25 C
Method: as §1, §2

[12] = target: T3, Cynomolgus monkey IL-18; assay: as above
Method: as §1, §2

[13] = target: T2, Human IL-18; assay: cell-based or functional assay; remark: listed apart in the source
[14] = target: T1, Human IL-23; assay: SPR (Biacore), antibody captured on Protein A/G, cytokine as analyte, 25 C
Method: as §1, §2

[15] = target: T2, Human IL-18; assay: SPR (Biacore), antibody captured on Protein A/G, cytokine as analyte, 25 C, 1:1 fit, n=1
Method: as §1, §2

B1: Heterodimeric bsAb 4 (bispecific antibody, human IgG1, kappa)
heavy 1: QVQLVQSGAEVKKPGSSVKVSCKASGYTFTDQTIHWMRQAPGQGLEWIGYIYPRDDSPKYNENFKGKVTITADKSTSTAYMELSSLRSEDTAVYYCAIPDRSGYAWFIYWGQGTLVTVSSASTKGPSVFPLAPSSKSTSGGTAALGCRVKDYFPEPVTVSWNSGALTSGVHTFPAVLQSSGLYSLSSVVTVPSSSLGTQTYICNVNHKPSNTKVDKKVEPKSCDKTHTCPPCPAPELAGAPSVFLFPPKPKDTLYITREPEVTCVVVDVSHEDPEVKFNWYVDGVEVHNAKTKPREEQYNSTYRVVSVLTVLHQDWLNGKEYKCKVSNKALPAPIEKTISKAKGQPREPQVYVYPPSRDELTKNQVSLTCLVKGFYPSDIAVEWESNGQPENNYKTTPPVLDSDGSFALVSKLTVDKSRWQQGNVFSCSVMHEALHNHYTQKSLSLSPGK
light 1: DIQMTQSPSSLSASVGDRVTITCKASRDVAIAVAWYQQKPGKVPKLLIYWASTRHTGVPSRFSGSGSRTDFTLTISSLQPEDVADYFCHQYSSYPFTFGSGTKLEIKRTVAAPSVFIFPPSDEELKSGTASVECLLNNFYPREAKVQWKVDNALQSGNSQESVTEQDSKDSTYSLSSTLTLSKADYEKHKVYACEVTHQGLSSPVTKSFNRGEC
heavy 2: QVQLVQSGAEVKKPGASVKVSCKVSGEISTGYYFHWVRQAPGKGLEWMGRIDPEDDSTKYAERFKDRVTMTEDTSTDTAYMELSSLRSEDTAVYYCTTWRIYRDSSGRPFYVMDAWGQGTLVTVSSASTKGPSVFPLAPSSKSTSGGTAALGCEVTDYFPEPVTVSWNSGALTSGVHTFPAVLESSGLYSLSSVVTVPSSSLGTQTYICNVNHKPSNTKVDKKVEPKSCDKTHTCPPCPAPELAGAPSVFLFPPKPKDTLYITREPEVTCVVVDVSHEDPEVKFNWYVDGVEVHNAKTKPREEQYNSTYRVVSVLTVLHQDWLNGKEYKCKVSNKALPAPIEKTISKAKGQPREPQVYVLPPSRDELTKNQVSLLCLVKGFYPSDIAVEWESNGQPENNYLTWPPVLDSDGSFFLYSKLTVDKSRWQQGNVFSCSVMHEALHNHYTQKSLSLSPGK
light 2: DIQMTQSPSSVSASVGDRVTITCLASEDIYTYLTWYQQKPGKAPKLLIYGANKLQDGVPSRFSGSGSGTDYTLTISSLQPEDFATYYCLQGSKFPLTFGQGTKLEIKRTVAAPSVFIFPPSDERLKSGTASVVCLLNNFYPREAKVQWKVDNALQSGNSQESVTEQDSKDSTYSLSSRLTLSKADYEKHKVYACEVTHQGLSSPVTKSFNRGEC
notes: Het-mAb format: anti-IL-23 mAb (risankizumab) on ZA and anti-IL-18 mAb on ZB, with Fc heterodimerisation, silencing and half-life extending mutations; Stably expressed in CHO cells; also called anti-IL-23xIL-18 HETmAb
IC50 pM (Geomean), neutralisation of human IL-23-induced pSTAT3 in DB cells (MSD) [1]: 58.9 pM | pIC50 (Geomean), neutralisation of human IL-23-induced pSTAT3 in DB cells (MSD) [1]: 10.2 | IC50 (pM, Mean), neutralisation of human IL-18-induced IFNγ secretion by KG-1 cells [2]: 115 pM | pIC50 (GeoMean), neutralisation of human IL-18-induced IFNγ secretion by KG-1 cells [2]: 9.94 | IC50 (pM, Mean), neutralisation of cynomolgus IL-18-induced IFNγ secretion by KG-1 cells [3]: 97.7 pM | pIC50 (GeoMean), neutralisation of cynomolgus IL-18-induced IFNγ secretion by KG-1 cells [3]: 10 | Fold change (from IL-18 control 1) of IC50, LPS + IL12-induced IFN-γ in human whole blood [4]: 1.9 fold | IC50 nM, inhibition of LPS + IL12-induced IFN-γ in human whole blood [4]: 10.5 nM | pIC50, inhibition of LPS + IL12-induced IFN-γ in human whole blood [4]: 8 | Fold change (from anti-IL-23, IL-23 control 1) of IC50, IL-23-induced pSTAT3 in T cells of human whole blood [5]: 2.42 fold | IC50, inhibition of IL-23-induced pSTAT3 in T cells of human whole blood [5]: 395 pM | pIC50, inhibition of IL-23-induced pSTAT3 in T cells of human whole blood [5]: 9.4 | Fold change (from anti-IL-23, IL-23 control 1) of IC50, IL-23-induced mouse IL-17A in mouse splenocytes [6]: 2.67 fold | IC50 pM, inhibition of human IL-23-induced mouse IL-17A secretion in mouse splenocytes [6]: 111 pM | pIC50 (M), inhibition of human IL-23-induced mouse IL-17A secretion in mouse splenocytes [6]: 10 | Kd [7]: 0.035 nM | Kd [8]: 0.068 nM | Kd [9]: 0.297 nM | Kd [10]: 0.162 nM

B2: IL-23 control 1 (antibody, V domains shown)
VH: QVQLVQSGAEVKKPGSSVKVSCKASGYTFTDQTIHWMRQAPGQGLEWIGYIYPRDDSPKYNENFKGKVTITADKSTSTAYMELSSLRSEDTAVYYCAIPDRSGYAWFIYWGQGTLVTVSS
VL: DIQMTQSPSSLSASVGDRVTITCKASRDVAIAVAWYQQKPGKVPKLLIYWASTRHTGVPSRFSGSGSRTDFTLTISSLQPEDVADYFCHQYSSYPFTFGSGTKLEIK
notes: Anti-IL-23 (risankizumab) mAb plus Het-mAb Fc mutations of Heterodimeric bsAbs 1-4, silencing (LAGA) and half-life extending (YTE) mutations; also called anti-IL-23 control 1; risankizumab variable domains
IC50 pM (Geomean), neutralisation of human IL-23-induced pSTAT3 in DB cells (MSD) [1]: 16.6 pM | pIC50 (Geomean), neutralisation of human IL-23-induced pSTAT3 in DB cells (MSD) [1]: 10.8 | pIC50 (GeoMean), neutralisation of human IL-18-induced IFNγ secretion by KG-1 cells [2]: < 8.48 | pIC50 (GeoMean), neutralisation of cynomolgus IL-18-induced IFNγ secretion by KG-1 cells [3]: < 8.48 | IC50, inhibition of IL-23-induced pSTAT3 in T cells of human whole blood [5]: 163 pM | pIC50, inhibition of IL-23-induced pSTAT3 in T cells of human whole blood [5]: 9.8 | IC50 pM, inhibition of human IL-23-induced mouse IL-17A secretion in mouse splenocytes [6]: 41.7 pM | pIC50 (M), inhibition of human IL-23-induced mouse IL-17A secretion in mouse splenocytes [6]: 10.4 | binding result [11]: no binding (tested: 0.04-25 nM analyte) | binding result [12]: no binding (tested: 0.04-25 nM analyte) | Kd [9]: 0.348 nM | Kd [10]: 0.204 nM

B3: IL-18 control 5 (antibody, V domains shown)
VH: QVQLVQSGAEVKKPGASVKVSCKVSGEISTGYYFHWVRQAPGKGLEWMGRIDPEDDSTKYAERFKDRVTMTEDTSTDTAYMELSSLRSEDTAVYYCTTWRIYRDSSGRPFYVMDAWGQGTLVTVSS
VL: DIQMTQSPSSVSASVGDRVTITCLASEDIYTYLTWYQQKPGKAPKLLIYGANKLQDGVPSRFSGSGSGTDYTLTISSLQPEDFATYYCLQGSKFPLTFGQGTKLEIK
notes: Anti-IL-18 mAb plus Het-mAb Fc mutations of Heterodimeric bsAbs 1-4 and silencing (LAGA) mutations
IC50 (pM, Mean), neutralisation of human IL-18-induced IFNγ secretion by KG-1 cells [13]: 52.5 pM | pIC50 (GeoMean), neutralisation of human IL-18-induced IFNγ secretion by KG-1 cells [13]: 10.3 | binding result [14]: no binding (tested: 0.04-25 nM analyte) | Kd [15]: < 0.01 nM

B4: IL-18 control 1 (antibody, V domains shown)
VH: QVQLVQSGAEVKKPGASVKVSCKVSGEISTGYYFHWVRQAPGKGLEWMGRIDPEDDSTKYAERFKDRVTMTEDTSTDTAYMELSSLRSEDTAVYYCTTWRIYRDSSGRPFYVMDAWGQGTLVTVSS
VL: DIQMTQSPSSVSASVGDRVTITCLASEDIYTYLTWYQQKPGKAPKLLIYGANKLQDGVPSRFSGSGSGTDYTLTISSLQPEDFATYYCLQGSKFPLTFGQGTKLEIK
notes: Anti-IL-18 mAb plus Het-mAb Fc mutations of Heterodimeric bsAbs 1-4, silencing (LAGA) and half-life extending (YTE) mutations; also called anti-IL-18 control 1
IC50 (pM, Mean), neutralisation of human IL-18-induced IFNγ secretion by KG-1 cells [2]: 52.5 pM | pIC50 (GeoMean), neutralisation of human IL-18-induced IFNγ secretion by KG-1 cells [2]: 10.3 | IC50 (pM, Mean), neutralisation of cynomolgus IL-18-induced IFNγ secretion by KG-1 cells [3]: 53.7 pM | pIC50 (GeoMean), neutralisation of cynomolgus IL-18-induced IFNγ secretion by KG-1 cells [3]: 10.3 | IC50 nM, inhibition of LPS + IL12-induced IFN-γ in human whole blood [4]: 5.5 nM | pIC50, inhibition of LPS + IL12-induced IFN-γ in human whole blood [4]: 8.3 | binding result [14]: no binding (tested: 0.04-25 nM analyte) | Kd [7]: 0.067 nM | Kd [8]: 0.064 nM

Reference: patent publication US20260226152A1 (GlaxoSmithKline, published 2026)
